Holding throughout (assay): Crosslinking/co-immunoprecipitation/mass spectrometry (TMT quantitative proteomics) to identify irisin receptors
Holding throughout (assay type): binding

In experiment [1] the target is T1, MLO-Y4 cell surface proteins (Mus musculus, UniProt Q9DCW4).
T1 construct: endogenous in cells; host or cells: MLO-Y4
T1 sequence (Q9DCW4 1-255): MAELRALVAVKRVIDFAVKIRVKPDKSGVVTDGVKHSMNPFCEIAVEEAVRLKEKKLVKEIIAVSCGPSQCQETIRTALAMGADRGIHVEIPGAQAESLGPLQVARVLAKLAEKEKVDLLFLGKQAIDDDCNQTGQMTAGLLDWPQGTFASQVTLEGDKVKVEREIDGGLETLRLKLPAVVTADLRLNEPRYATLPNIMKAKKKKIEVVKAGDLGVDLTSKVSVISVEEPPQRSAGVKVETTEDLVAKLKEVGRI
The note with it: co-precipitated protein Etfb (ETFB_MOUSE). In short, it runs like this: (§1)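 Relative protein abundance came from 6-plex TMT MS3 quantitation on an Orbitrap Fusion Lumos, after in-gel trypsin digestion of Coomassie-stained SDS-PAGE lanes. Input was a Ni-NTA pulldown (250 mM imidazole elution) of lysates from murine MLO-Y4 cells. These cells were treated on ice with His-tagged irisin or adipsin (10 nM, 20 min) in serum-free medium, then crosslinked with 1.5 mM DTSSP for 30 min.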

For experiment [2], the target named is T2, MLO-Y4 cell surface proteins (Mus musculus, UniProt Q8R1I1).
T2 construct: endogenous in cells; host or cells: MLO-Y4
T2 sequence (Q8R1I1 1-64): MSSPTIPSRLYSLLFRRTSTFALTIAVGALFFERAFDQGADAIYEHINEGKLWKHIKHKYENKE
Particulars: co-precipitated protein Uqcr10 (QCR9_MOUSE). In short, it runs like this:
as §1

Experiment [3] deals with T3, MLO-Y4 cell surface proteins (Mus musculus, UniProt Q8K221).
T3 construct: endogenous in cells; host or cells: MLO-Y4
T3 sequence (Q8K221 1-341): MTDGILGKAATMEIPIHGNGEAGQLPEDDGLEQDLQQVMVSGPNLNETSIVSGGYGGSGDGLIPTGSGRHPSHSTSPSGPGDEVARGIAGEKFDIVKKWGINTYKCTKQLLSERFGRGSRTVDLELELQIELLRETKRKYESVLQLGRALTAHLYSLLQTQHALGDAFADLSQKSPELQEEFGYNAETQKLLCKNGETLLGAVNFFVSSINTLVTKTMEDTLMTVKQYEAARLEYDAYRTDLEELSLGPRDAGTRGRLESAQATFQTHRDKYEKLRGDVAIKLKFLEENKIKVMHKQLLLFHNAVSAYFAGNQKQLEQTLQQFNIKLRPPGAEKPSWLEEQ
Particulars: co-precipitated protein Arfip2 (ARFP2_MOUSE). In short, it runs like this:
as §1

For experiment [4], the target named is T4, MLO-Y4 cell surface proteins (Mus musculus, UniProt Q9Z2I9).
T4 construct: endogenous in cells; host or cells: MLO-Y4
T4 sequence (Q9Z2I9 54-463): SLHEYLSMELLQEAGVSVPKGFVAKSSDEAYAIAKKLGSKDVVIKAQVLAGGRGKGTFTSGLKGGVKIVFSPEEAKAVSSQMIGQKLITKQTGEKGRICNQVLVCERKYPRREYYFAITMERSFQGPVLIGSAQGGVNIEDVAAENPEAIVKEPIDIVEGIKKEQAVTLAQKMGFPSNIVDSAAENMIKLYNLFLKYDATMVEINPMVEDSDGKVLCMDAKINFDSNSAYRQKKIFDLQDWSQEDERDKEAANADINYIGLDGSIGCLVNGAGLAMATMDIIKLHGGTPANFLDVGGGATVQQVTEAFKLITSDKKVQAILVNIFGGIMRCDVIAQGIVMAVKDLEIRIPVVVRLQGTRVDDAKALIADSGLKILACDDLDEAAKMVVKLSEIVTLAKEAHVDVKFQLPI
The note with it: co-precipitated protein Sucla2 (SUCB1_MOUSE). In outline:
as §1

B1: irisin: secreted cleaved form of FNDC5; recombinant human/mouse irisin with C-terminal his tag produced in HEK293 cells (protein)
chain: DSPSAPVNVTVRHLKANSAVVSWDVLEDEVVIGFAISQQKKDVRMLRFIQEVNTTTRSCALWDLEEDTEYIVHVQAISIQGQSPASEPVLFKTPREAEKMASKNKDEVTMKE
modifications: left off: small tags and cut ends
notes: secreted cleaved form of FNDC5; recombinant human/mouse irisin with C-terminal his tag produced in HEK293 cells
Turning to B1, the TMT signal-to-noise ratio is listed as 409.026 in experiment [1], 125.477 in experiment [2], 377.903 in experiment [3] and 19.8331 in experiment [4]. For the same molecule, the “irisin/adipsin TMT signal-to-noise ratio” value in experiment [1] is on record as 0.560; in experiment [2] it was 0.516; in experiment [3], 0.346; in experiment [4] it was 0.390.

For the origin of these results see patent US20210063414A1, “METHODS FOR PREVENTING AND/OR TREATING BONE LOSS CONDITIONS BY MODULATING IRISIN” (Dana-Farber Cancer Institute, Inc., priority 2018, published 2021).
